Test results reported in PMC4751278 (2016).

Biological target: T1, Hik2-GST (full-length Histidine kinase 2 of Synechocystis sp. PCC 6803, GST-tagged) (Synechocystis sp. (strain ATCC 27184 / …, UniProt P73276))
T1 chain: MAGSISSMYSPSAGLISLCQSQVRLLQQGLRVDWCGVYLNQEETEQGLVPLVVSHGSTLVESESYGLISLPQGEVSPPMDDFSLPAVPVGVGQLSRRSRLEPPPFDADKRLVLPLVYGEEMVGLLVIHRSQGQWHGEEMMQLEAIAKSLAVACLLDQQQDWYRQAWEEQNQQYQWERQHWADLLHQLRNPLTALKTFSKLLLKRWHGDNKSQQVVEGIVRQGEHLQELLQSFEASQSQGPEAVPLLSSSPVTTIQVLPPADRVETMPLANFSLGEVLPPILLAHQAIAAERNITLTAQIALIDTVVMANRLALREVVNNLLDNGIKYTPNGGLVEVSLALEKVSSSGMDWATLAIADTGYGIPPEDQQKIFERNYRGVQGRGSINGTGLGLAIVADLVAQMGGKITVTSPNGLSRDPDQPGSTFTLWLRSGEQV
Assay: GST pull-down

B1: Rre1_Rec-His6 (receiver domain of Response regulator 1) (protein)
chain: MAEPISLLLVDDEPGVRESVQAFLEDSGDFKVDLAANATEAWDYLQHHLPALVISDIMMPQVDGYQFLQKLREDARFQSLPVVFLTARGMTGDRIQGYQTGCDAFLSKPFDPDELEAIVRNLL
  binding result: binds
